Test results from IntAct's records for PubMed 19407143.

B1: Protein phosphatase 2C 77 (Arabidopsis thaliana (Mouse-ear cress)), O04719 (parent)
chain: MDEVSPAVAVPFRPFTDPHAGLRGYCNGESRVTLPESSCSGDGAMKDSSFEINTRQDSLTSSSSAMAGVDISAGDEINGSDEFDPRSMNQSEKKVLSRTESRSLFEFKCVPLYGVTSICGRRPEMEDSVSTIPRFLQVSSSSLLDGRVTNGFNPHLSAHFFGVYDGHGGSQVANYCRERMHLALTEEIVKEKPEFCDGDTWQEKWKKALFNSFMRVDSEIETVAHAPETVGSTSVVAVVFPTHIFVANCGDSRAVLCRGKTPLALSVDHKPDRDDEAARIEAAGGKVIRWNGARVFGVLAMSRSIGDRYLKPSVIPDPEVTSVRRVKEDDCLILASDGLWDVMTNEEVCDLARKRILLWHKKNAMAGEALLPAEKRGEGKDPAAMSAAEYLSKMALQKGSKDNISVVVVDLKGIRKFKSKSLN
partner: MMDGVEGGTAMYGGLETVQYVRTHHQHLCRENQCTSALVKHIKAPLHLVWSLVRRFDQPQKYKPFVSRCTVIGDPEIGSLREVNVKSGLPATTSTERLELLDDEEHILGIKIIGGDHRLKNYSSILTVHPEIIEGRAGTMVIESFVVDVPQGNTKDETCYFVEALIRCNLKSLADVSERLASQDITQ
B2: Protein phosphatase 2C 56 (Arabidopsis thaliana (Mouse-ear cress)), P49597 (parent)
chain: MEEVSPAIAGPFRPFSETQMDFTGIRLGKGYCNNQYSNQDSENGDLMVSLPETSSCSVSGSHGSESRKVLISRINSPNLNMKESAAADIVVVDISAGDEINGSDITSEKKMISRTESRSLFEFKSVPLYGFTSICGRRPEMEDAVSTIPRFLQSSSGSMLDGRFDPQSAAHFFGVYDGHGGSQVANYCRERMHLALAEEIAKEKPMLCDGDTWLEKWKKALFNSFLRVDSEIESVAPETVGSTSVVAVVFPSHIFVANCGDSRAVLCRGKTALPLSVDHKPDREDEAARIEAAGGKVIQWNGARVFGVLAMSRSIGDRYLKPSIIPDPEVTAVKRVKEDDCLILASDGVWDVMTDEEACEMARKRILLWHKKNAVAGDASLLADERRKEGKDPAAMSAAEYLSKLAIQRGSKDNISVVVVDLKPRRKLKSKPLN
partner: B1 partner

Variants of: B1
Conditions: with pyl9_arath PYL9, Q84MC7

Variant | effect of a mutation on the interaction
MDEVSPAVAVPFRPFTDPHAGLRGYCNGESRVTLPESSCSGDGAMKDSSFEINTRQDSLTSSSSAMAGVDISAGDEINGSDEFDPRSMNQSEKKVLSRTESRSLFEFKCVPLYGVTSICGRRPEMEDSVSTIPRFLQVSSSSLLDGRVTNGFNPHLSAHFFGVYDGHDGSQVANYCRERMHLALTEEIVKEKPEFCDGDTWQEKWKKALFNSFMRVDSEIETVAHAPETVGSTSVVAVVFPTHIFVANCGDSRAVLCRGKTPLALSVDHKPDRDDEAARIEAAGGKVIRWNGARVFGVLAMSRSIGDRYLKPSVIPDPEVTSVRRVKEDDCLILASDGLWDVMTNEEVCDLARKRILLWHKKNAMAGEALLPAEKRGEGKDPAAMSAAEYLSKMALQKGSKDNISVVVVDLKGIRKFKSKSLN [G168D] | disrupting interaction

Variants of: B2
Conditions: with pyl9_arath PYL9, Q84MC7

Variant | effect of a mutation on the interaction
MEEVSPAIAGPFRPFSETQMDFTGIRLGKGYCNNQYSNQDSENGDLMVSLPETSSCSVSGSHGSESRKVLISRINSPNLNMKESAAADIVVVDISAGDEINGSDITSEKKMISRTESRSLFEFKSVPLYGFTSICGRRPEMEDAVSTIPRFLQSSSGSMLDGRFDPQSAAHFFGVYDGHDGSQVANYCRERMHLALAEEIAKEKPMLCDGDTWLEKWKKALFNSFLRVDSEIESVAPETVGSTSVVAVVFPSHIFVANCGDSRAVLCRGKTALPLSVDHKPDREDEAARIEAAGGKVIQWNGARVFGVLAMSRSIGDRYLKPSIIPDPEVTAVKRVKEDDCLILASDGVWDVMTDEEACEMARKRILLWHKKNAVAGDASLLADERRKEGKDPAAMSAAEYLSKLAIQRGSKDNISVVVVDLKPRRKLKSKPLN [G180D] | decreasing interaction
